Biological target: purified αvβ3 integrin (UniProt P06756)
Assay: cell-based or functional assay

Chain of purified αvβ3 integrin (P06756 31-1048, form in doubt, chain 1 of 2): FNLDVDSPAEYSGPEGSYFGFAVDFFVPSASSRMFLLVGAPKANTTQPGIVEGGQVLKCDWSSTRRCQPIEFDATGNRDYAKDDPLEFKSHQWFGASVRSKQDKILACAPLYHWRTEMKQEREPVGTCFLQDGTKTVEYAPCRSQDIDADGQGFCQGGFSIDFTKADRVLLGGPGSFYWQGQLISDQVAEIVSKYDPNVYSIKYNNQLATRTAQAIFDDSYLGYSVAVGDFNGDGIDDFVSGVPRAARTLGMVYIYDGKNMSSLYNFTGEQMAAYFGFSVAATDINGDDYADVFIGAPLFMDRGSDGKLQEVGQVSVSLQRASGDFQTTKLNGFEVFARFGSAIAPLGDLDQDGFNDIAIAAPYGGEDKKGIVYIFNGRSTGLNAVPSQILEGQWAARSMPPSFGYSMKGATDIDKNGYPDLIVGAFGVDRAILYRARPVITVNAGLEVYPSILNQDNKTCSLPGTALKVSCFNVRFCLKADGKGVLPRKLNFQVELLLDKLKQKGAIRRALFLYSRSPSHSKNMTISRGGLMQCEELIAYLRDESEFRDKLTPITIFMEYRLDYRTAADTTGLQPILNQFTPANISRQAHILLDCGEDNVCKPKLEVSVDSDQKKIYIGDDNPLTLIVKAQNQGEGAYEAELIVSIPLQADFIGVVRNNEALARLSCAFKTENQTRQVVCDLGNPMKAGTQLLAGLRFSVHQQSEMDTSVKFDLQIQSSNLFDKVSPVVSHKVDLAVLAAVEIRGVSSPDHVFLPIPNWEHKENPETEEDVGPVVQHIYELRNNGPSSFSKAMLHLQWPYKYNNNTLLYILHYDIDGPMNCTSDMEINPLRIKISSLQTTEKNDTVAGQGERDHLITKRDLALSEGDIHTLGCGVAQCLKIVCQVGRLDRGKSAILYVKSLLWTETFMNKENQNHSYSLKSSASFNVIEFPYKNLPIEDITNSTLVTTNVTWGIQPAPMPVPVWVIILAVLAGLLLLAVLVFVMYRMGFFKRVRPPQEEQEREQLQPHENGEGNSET
Chain of purified αvβ3 integrin (P05106 27-788, form in doubt, chain 2 of 2, further chain): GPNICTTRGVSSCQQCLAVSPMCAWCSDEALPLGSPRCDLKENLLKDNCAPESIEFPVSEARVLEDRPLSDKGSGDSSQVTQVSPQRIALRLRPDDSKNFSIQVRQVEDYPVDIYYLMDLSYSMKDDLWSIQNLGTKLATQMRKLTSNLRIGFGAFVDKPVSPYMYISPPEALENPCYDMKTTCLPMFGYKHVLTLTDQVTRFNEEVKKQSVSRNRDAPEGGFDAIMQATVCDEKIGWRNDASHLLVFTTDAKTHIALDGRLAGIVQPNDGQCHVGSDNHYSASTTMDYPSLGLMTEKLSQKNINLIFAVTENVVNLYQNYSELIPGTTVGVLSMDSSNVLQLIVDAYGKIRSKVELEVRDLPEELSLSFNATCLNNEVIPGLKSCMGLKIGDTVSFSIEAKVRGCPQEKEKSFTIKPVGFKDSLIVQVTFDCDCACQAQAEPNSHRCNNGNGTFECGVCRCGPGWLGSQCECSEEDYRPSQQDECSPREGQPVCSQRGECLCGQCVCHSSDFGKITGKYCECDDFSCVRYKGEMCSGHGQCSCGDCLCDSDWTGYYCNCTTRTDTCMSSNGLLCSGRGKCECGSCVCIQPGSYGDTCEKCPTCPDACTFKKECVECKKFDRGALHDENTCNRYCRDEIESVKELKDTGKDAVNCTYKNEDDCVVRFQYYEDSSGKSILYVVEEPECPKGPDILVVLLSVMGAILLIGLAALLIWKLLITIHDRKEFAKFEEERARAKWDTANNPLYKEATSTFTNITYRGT

cell adhesion promoting effect, SH-Sy5y neuroblastoma cells: 40%
Substance: mutADAM 23 disintegrin-like domain (E466A) expressed as a fusion protein with GST (from UniProt O75077 498-588)
